Assay results from patent US20250163127A1.

Key:
Assay in all cases: flow cytometry, transfected HEK293 cells
[1] = target: T1, TIGIT (human) (UniProt Q495A1)
T1 sequence: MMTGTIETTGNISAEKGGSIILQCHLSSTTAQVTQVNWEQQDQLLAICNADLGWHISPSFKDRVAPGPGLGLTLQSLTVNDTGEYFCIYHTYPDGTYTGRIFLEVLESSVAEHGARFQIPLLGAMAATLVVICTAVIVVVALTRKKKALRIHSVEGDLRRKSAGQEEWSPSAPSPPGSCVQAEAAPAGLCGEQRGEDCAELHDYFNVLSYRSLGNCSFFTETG

[2] = target: T2, CD226 (human) (UniProt Q15762)
T2 sequence: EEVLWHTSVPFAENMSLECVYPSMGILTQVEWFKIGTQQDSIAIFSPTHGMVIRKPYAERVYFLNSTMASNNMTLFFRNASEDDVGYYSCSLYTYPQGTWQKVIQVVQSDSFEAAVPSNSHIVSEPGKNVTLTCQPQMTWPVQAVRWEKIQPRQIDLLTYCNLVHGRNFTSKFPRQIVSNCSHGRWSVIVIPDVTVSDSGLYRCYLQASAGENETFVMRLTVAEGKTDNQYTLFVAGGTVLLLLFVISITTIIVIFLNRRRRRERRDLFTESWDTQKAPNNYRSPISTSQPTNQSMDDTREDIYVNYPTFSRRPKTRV

[3] = target: CD112R (human) (UniProt Q6DKI7)
Chain of CD112R (human) (Q6DKI7 whole entry): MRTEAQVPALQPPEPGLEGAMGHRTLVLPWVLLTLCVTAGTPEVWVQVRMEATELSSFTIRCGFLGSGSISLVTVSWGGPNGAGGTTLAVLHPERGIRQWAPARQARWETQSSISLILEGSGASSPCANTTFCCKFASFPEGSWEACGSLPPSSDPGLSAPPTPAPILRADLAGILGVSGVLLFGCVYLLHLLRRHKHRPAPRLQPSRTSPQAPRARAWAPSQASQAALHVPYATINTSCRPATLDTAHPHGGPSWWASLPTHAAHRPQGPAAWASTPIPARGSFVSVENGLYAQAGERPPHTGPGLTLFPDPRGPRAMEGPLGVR

[4] = target: T3, CD96 (human) (UniProt P40200)
T3 sequence: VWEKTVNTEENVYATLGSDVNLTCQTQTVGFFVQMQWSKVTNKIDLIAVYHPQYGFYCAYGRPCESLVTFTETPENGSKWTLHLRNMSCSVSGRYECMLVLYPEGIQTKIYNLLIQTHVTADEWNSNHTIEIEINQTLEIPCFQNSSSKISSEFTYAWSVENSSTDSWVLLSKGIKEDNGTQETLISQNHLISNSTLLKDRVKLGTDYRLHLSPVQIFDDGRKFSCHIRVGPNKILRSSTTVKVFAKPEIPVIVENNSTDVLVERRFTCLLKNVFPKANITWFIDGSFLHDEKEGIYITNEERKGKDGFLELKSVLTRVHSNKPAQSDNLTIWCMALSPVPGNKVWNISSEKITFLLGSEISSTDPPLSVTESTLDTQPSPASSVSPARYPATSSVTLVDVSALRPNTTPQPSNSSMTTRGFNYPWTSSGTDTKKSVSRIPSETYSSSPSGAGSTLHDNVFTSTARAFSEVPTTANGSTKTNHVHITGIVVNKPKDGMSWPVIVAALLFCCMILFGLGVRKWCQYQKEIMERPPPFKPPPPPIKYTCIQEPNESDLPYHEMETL

Substance	MFI at 100 nM [1]	MFI at 100 nM [2]	MFI at 100 nM [3]	fold increase to WT ECD [3] [fold]	MFI at 100 nM [4]	fold increase to WT ECD [4] [fold]	MFI at 25 nM [1] [MFI]
variant CD155 IgV-Fc, S42A, S52L, L104E, G111R (Fc fusion)	2260	1890	1780	1	1610	0.02	–
variant CD155 IgV-Fc, S42V, S52E (Fc fusion)	–	2270	1810	–	2530	–	–
variant CD155 IgV-Fc, G111R (Fc fusion)	–	2790	–	–	3320	–	–
CD155 variant IgV-Fc P18S, H59N, V75A, L79P, A81T, F91S, L104M, T107M (Fc fusion)	–	–	–	–	–	–	800
variant CD155 IgV-Fc, S42N, S52Q, Q62F (Fc fusion)	2400	2150	–	–	1740	–	–
CD155 variant IgV-Fc V9L, V11M, P18S, N35S, S54G, Q62K, L79P, L104M, T107M, V115M (Fc fusion)	–	–	–	–	–	–	3000
variant CD155 IgV-Fc, S42W, S52R, Q62Y, L104Q (Fc fusion)	–	2300	1820	–	1760	–	–
variant CD155 IgV-Fc, S52M, V57L (Fc fusion)	–	2430	–	–	1860	–	–
variant CD155 IgV-Fc, S42C, S52M, Q62F (Fc fusion)	–	2080	–	–	1480	–	–
variant CD155 IgV-Fc, S52L (Fc fusion)	2220	2680	–	–	–	–	–
variant CD155 IgV-Fc, S52W (Fc fusion)	–	2040	1610	–	1710	–	–
variant CD155 IgV-Fc, S42A (Fc fusion)	–	2190	–	–	1620	–	–
variant CD155 IgV-Fc, A13R, D23Y, E37P, S42P, Q62Y, A81E (Fc fusion)	4160	–	–	–	–	–	–
variant CD155 IgV-Fc, S42W, S52Q, V57L, Q62Y (Fc fusion)	–	2140	–	–	1700	–	–
variant CD155 IgV-Fc, L104Q (Fc fusion)	–	3790	–	–	1540	–	–
variant CD155 IgV-Fc, T45Q, S52R, G111R (Fc fusion)	4090	2080	1790	1.01	2340	0.02	–

Substance	MFI at 100 nM [1]	MFI at 100 nM [2]	MFI at 100 nM [3]	fold increase to WT ECD [3] [fold]	MFI at 100 nM [4]	fold increase to WT ECD [4] [fold]	MFI at 25 nM [1] [MFI]
variant CD155 IgV-Fc, S52Q (Fc fusion)	2290	2020	1790	1	1820	0.02	–
variant CD155 IgV-Fc, S42N, L104Q, G111R (Fc fusion)	2430	2310	–	–	1960	–	–
variant CD155 IgV-Fc, S42C, S52L (Fc fusion)	–	2150	–	–	1480	–	–
variant CD155 IgV-Fc, Q62F (Fc fusion)	2210	2570	–	–	2760	–	–
variant CD155 IgV-Fc, S42A, S52Q, L104Q, G111R (Fc fusion)	–	2160	–	–	1640	–	–
variant CD155 IgV-Fc, S52E (Fc fusion)	2660	2600	–	–	1800	–	–
variant CD155 IgV-Fc, S42G, S52L, Q62F, L104Q (Fc fusion)	–	2160	–	–	1640	–	–
variant CD155 IgV-Fc, L104E (Fc fusion)	3140	2260	1800	1.01	1560	0.02	–
variant CD155 IgV-Fc, S42N (Fc fusion)	–	1910	1700	–	1690	–	–
variant CD155 IgV-Fc, T45Q, S52L, L104E, G111R (Fc fusion)	2290	2390	–	–	1580	–	–
variant CD155 IgV-Fc, T45Q, S52Q (Fc fusion)	4810	5790	–	–	2450	–	–
variant CD155 IgV-Fc, T45Q, S52L, V57L, L104E (Fc fusion)	2860	5940	–	–	1530	–	–
variant CD155 IgV-Fc, S42L (Fc fusion)	–	2190	1740	–	1620	–	–
variant CD155 IgV-Fc, P18S, V41A, S42G, T45G, L104N (Fc fusion)	3820	–	–	–	–	–	–
variant CD155 IgV-Fc, S52W, L104E (Fc fusion)	–	1910	–	–	1630	–	–
variant CD155 IgV-Fc, S52M, L104Q (Fc fusion)	2670	2250	–	–	1630	–	–

Next, values leading:

MFI at 100 nM [1]	MFI at 100 nM [2]	MFI at 100 nM [3]	fold increase to WT ECD [3] [fold]	MFI at 100 nM [4]	fold increase to WT ECD [4] [fold]	MFI at 25 nM [1] [MFI]	Substance
–	2100	1680	–	1590	–	–	variant CD155 IgV-Fc, S42C (Fc fusion)
–	–	–	–	3340	–	–	variant CD155 IgV-Fc, P18L, E37S, Q62M, G80S, A81P, G99Y, S112N (Fc fusion)
–	2230	–	–	2140	–	–	variant CD155 IgV-Fc, S42Q (Fc fusion)
2970	3170	–	–	2360	–	–	variant CD155 IgV-Fc, S52R, Q62F, L104Q, G111R (Fc fusion)
2530	2620	–	–	1830	–	–	variant CD155 IgV-Fc, Q62Y (Fc fusion)
–	2020	–	–	–	–	–	variant CD155 IgV-Fc, S42G, S52Q, L104E, G111R (Fc fusion)
4400	3960	–	–	4850	–	–	variant CD155 IgV-Fc, S52R (Fc fusion)
–	2040	1700	–	1520	–	–	variant CD155 IgV-Fc, Q62F, L104E, G111R (Fc fusion)
2430	2130	–	–	2560	–	–	variant CD155 IgV-Fc, S42W (Fc fusion)
–	1900	1820	–	1700	–	–	variant CD155 IgV-Fc, S42A, L104Q, G111R (Fc fusion)
4840	2450	1820	1.02	1700	0.02	–	variant CD155 IgV-Fc, S42G (Fc fusion)
–	2640	–	–	2320	–	–	variant CD155 IgV-Fc, S42L, S52L, Q62F, L104Q (Fc fusion)
–	1740	1690	–	1540	–	–	variant CD155 IgV-Fc, S42N, S52E, V57L, L104E (Fc fusion)
–	2000	1770	–	1650	–	–	variant CD155 IgV-Fc, S52M, Q62Y (Fc fusion)
–	1900	–	–	1610	–	–	variant CD155 IgV-Fc, S52M (Fc fusion)
